Assays:
[1] = biological target: the molecule itself; assay: yeast two-hybrid, beta-galactosidase filter assay; bait and prey RNase H-like protein
[2] = biological target: T1, untagged bovine serum albumen (bovine, UniProt P02769 25-607); assay: Ni column pull down under physiological conditions, SDS PAGE autoradiogram
T1 construct: Negative control; also called BSA

[3] = biological target: T2, untagged RNase A (UniProt P61823 27-150); assay: farwestern blot (FIG. 13), control lane
T2 construct: Negative control
T2 sequence: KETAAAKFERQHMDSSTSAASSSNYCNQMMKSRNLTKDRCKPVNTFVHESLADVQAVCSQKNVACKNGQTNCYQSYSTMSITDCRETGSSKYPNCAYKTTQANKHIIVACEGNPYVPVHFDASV

[4] = biological target: T3, untagged hen egg white lysozyme (hen, UniProt P00698 19-147); assay: farwestern blot (FIG. 13), control lane
T3 construct: Negative control; also called HEWL
T3 sequence (P00698 19-147): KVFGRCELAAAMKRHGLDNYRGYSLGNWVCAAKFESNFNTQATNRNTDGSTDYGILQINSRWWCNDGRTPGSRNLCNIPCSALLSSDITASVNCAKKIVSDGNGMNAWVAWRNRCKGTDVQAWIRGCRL

T1 sequence (P02769 25-607 limits assumed): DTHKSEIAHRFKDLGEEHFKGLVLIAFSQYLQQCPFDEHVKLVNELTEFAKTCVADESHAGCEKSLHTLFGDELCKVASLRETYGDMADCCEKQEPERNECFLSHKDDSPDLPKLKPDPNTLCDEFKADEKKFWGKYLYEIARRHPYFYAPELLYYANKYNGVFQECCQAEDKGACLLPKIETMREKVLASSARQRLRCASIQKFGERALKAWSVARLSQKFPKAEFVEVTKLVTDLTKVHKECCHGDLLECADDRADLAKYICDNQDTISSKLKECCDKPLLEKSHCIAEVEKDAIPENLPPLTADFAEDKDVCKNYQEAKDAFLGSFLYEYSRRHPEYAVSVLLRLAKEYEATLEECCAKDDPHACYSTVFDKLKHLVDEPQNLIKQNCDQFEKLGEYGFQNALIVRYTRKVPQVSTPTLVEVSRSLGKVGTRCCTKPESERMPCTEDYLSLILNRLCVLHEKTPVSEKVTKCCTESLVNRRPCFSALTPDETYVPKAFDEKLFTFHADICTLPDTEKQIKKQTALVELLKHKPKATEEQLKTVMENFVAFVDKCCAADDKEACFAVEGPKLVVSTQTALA

B1: RNase H-like protein (sugarcane), yeast two-hybrid fusion (other)
chain: GHYGRGEHCMKNMAASYSQDAQLDLVLPDAPVDASASRSEHSSQLASSNWRSVIQNSPPDLLCGCGRPAIRRTAETAKNNGRIFRTCPACKIWIWQDLLDSYVNALISYCRDASIDSLQSELESSRLLISEKQAQISRLEKQLETLQPLISKYTEQSRSIAQASIPSSLFFLEACSLRHQRRRVNENQGGANFKRSYWSD
notes: Prey clone from the cDNA library of silenced sugarcane plant #16; same id for bait and prey fusions
[1]
  binding result: binds

B2: 35S labeled RNase H-like protein transcription and translation (TNT) product (other)
chain: B1 chain
modifications: labeled with 35S Cysteine
notes: Made in rabbit reticulocyte lysate; used as probe in farwestern blots and as the labelled partner in the pull down
[2]
  binding result: no binding
[3]
  binding result: no binding
[4]
  binding result: no binding
